Data from US20190119318A1.
Several values for one entry are separate records, joined by “and”; a condition that tells them apart may be missing. Equal values may be shown once.

What was measured:
[1] = target: human polyclonal IgG (Gammanorm) (human); test: column DBC; base A63a; ligand 6.1 mg/ml
[2] = target: human polyclonal IgG (Gammanorm) (human); test: column DBC; base A65a; ligand 13.6 mg/ml
[3] = target: human polyclonal IgG (Gammanorm) (human); test: column DBC; base A40; ligand 11.03 mg/ml
[4] = target: human polyclonal IgG (Gammanorm) (human); test: column DBC; base A28; ligand 11.9 mg/ml
[5] = target: human polyclonal IgG (Gammanorm) (human); test: column DBC; base A63a; ligand 6.6 mg/ml
[6] = target: human polyclonal IgG (Gammanorm) (human); test: column DBC; base C4; ligand 10.1 mg/ml
[7] = target: human polyclonal IgG (Gammanorm) (human); test: SPR; after 200 CIP cycles 0.5 M NaOH
[8] = target: human polyclonal IgG (Gammanorm) (human); test: column DBC; base A18; ligand 8.2 mg/ml
[9] = target: human polyclonal IgG (Gammanorm) (human); test: column DBC; base A28; ligand 15.8 mg/ml
[10] = target: human polyclonal IgG (Gammanorm) (human); test: column DBC; base A29; ligand 7.3 mg/ml
[11] = target: human polyclonal IgG (Gammanorm) (human); test: column DBC; base A38; ligand 7.45 mg/ml
[12] = target: human polyclonal IgG (Gammanorm) (human); test: column DBC; base A65a; ligand 6.1 mg/ml
[13] = target: human polyclonal IgG (Gammanorm) (human); test: column DBC; base A40; ligand 13.15 mg/ml
[14] = target: human polyclonal IgG (Gammanorm) (human); test: column DBC; base A32; ligand […]
[15] = target: human polyclonal IgG (Gammanorm) (human); test: column DBC; base A40; ligand 6.1 mg/ml
[16] = target: human polyclonal IgG (Gammanorm) (human); test: column DBC; ligand 20 mg/ml; before incubation in 1 M NaOH
[17] = target: human polyclonal IgG (Gammanorm) (human); test: SPR; vs reference Zvar4; 0.5 M NaOH
[18] = target: human polyclonal IgG (Gammanorm) (human); test: column DBC; base A43; ligand 6.99 mg/ml
[19] = target: human polyclonal IgG (Gammanorm) (human); test: column DBC; base A33; ligand 7.33 mg/ml
[20] = target: human polyclonal IgG (Gammanorm) (human); test: column DBC; base A27; ligand 7.5 mg/ml
[21] = target: human polyclonal IgG (Gammanorm) (human); test: column DBC; base A62b; ligand […]; conditions: ligand content 5.2 mg/ml
[22] = target: human polyclonal IgG (Gammanorm) (human); test: column DBC; base A27; ligand […]
[23] = target: human polyclonal IgG (Gammanorm) (human); test: column DBC; base A39; ligand 10.5 mg/ml
[24] = target: human polyclonal IgG (Gammanorm) (human); test: column DBC; base A43; ligand 10.51 mg/ml
[25] = target: human polyclonal IgG (Gammanorm) (human); test: column DBC; base A29; ligand 11 mg/ml
[26] = target: human polyclonal IgG (Gammanorm) (human); test: column DBC; ligand 12 mg/ml; before incubation in 1 M NaOH
[27] = target: human polyclonal IgG (Gammanorm) (human); test: column DBC; base A39; ligand 7.0 mg/ml
[28] = target: human polyclonal IgG (Gammanorm) (human); test: column DBC; base A33; ligand 7.3 mg/ml
[29] = target: human polyclonal IgG (Gammanorm) (human); test: column DBC; base C2; ligand […]
[30] = target: human polyclonal IgG (Gammanorm) (human); test: column DBC; base I1; ligand 6.1 mg/ml
[31] = target: human polyclonal IgG (Gammanorm) (human); test: SPR; after 100 CIP cycles 1 M NaOH
[32] = target: human polyclonal IgG (Gammanorm) (human); test: column DBC; base C3; ligand […]; conditions: ligand content 5.9 mg/ml
[33] = target: human polyclonal IgG (Gammanorm) (human); test: column DBC; base A38; ligand 11.3 mg/ml
[34] = target: human polyclonal IgG (Gammanorm) (human); test: column DBC; base A20; ligand 7.3 mg/ml
[35] = target: human polyclonal IgG (Gammanorm) (human); test: column DBC; base A41; ligand 8.83 mg/ml
[36] = target: human polyclonal IgG (Gammanorm) (human); test: column DBC; base A18; ligand 13.4 mg/ml
[37] = target: human polyclonal IgG (Gammanorm) (human); test: column DBC; base A41; ligand 5.0 mg/ml
[38] = target: human polyclonal IgG (Gammanorm) (human); test: column DBC; base A39; ligand 6.96 mg/ml
[39] = target: human polyclonal IgG (Gammanorm) (human); test: column DBC; base A42; ligand […]
[40] = target: human polyclonal IgG (Gammanorm) (human); test: column DBC; base A65b; ligand […]

Question: “Zvar(Q9A,N11E,Q40V,A42K,N43A,L44I)4 (designed binder)” was tested. Which Qb10% 2.4 min [1] did it give?
Answer: 39 mg/mL

Question: What about the Qb10% 6 min [1] of the same substance?
Answer: 44 mg/mL

Question: And the Qb10% 2.4 min [2]?
Answer: 52 mg/mL

Question: What about the Qb10% 6 min [2] of the same substance?
Answer: 61 mg/mL

Question: And the Qb10% 2.4 min [3]?
Answer: 55 mg/mL

Question: What about the Qb10% 6 min [3] of the same substance?
Answer: 73.8 mg/mL

Question: And the Qb10% 2.4 min [4]?
Answer: 39.9 mg/mL and 40 mg/mL

Question: And the Qb10% 6 min [4]?
Answer: 63.8 mg/mL and 64 mg/mL

Question: And the Qb10% 2.4 min [5]?
Answer: 40 mg/mL

Question: And the Qb10% 6 min [5]?
Answer: 44 mg/mL

Question: What about the Qb10% 2.4 min [6] of the same substance?
Answer: 55 mg/mL

Question: And the Qb10% 6 min [6]?
Answer: 63 mg/mL

Question: And the remaining capacity 200 cycles [7]?
Answer: 74%

Question: What about the Qb10% 2.4 min [8] of the same substance?
Answer: 52 mg/mL

Question: What about the Qb10% 6 min [8] of the same substance?
Answer: 59 mg/mL

Question: What about the Qb10% 2.4 min [9] of the same substance?
Answer: 37 mg/mL

Question: What about the Qb10% 6 min [9] of the same substance?
Answer: 67 mg/mL

Question: What about the Qb10% 2.4 min [10] of the same substance?
Answer: 36.3 mg/mL

Question: And the Qb10% 6 min [10]?
Answer: 51.8 mg/mL

Question: And the Qb10% 2.4 min [11]?
Answer: 44.4 mg/mL

Question: What about the Qb10% 6 min [11] of the same substance?
Answer: 58.2 mg/mL

Question: And the Qb10% 2.4 min [12]?
Answer: 40 mg/mL

Question: And the Qb10% 6 min [12]?
Answer: 44 mg/mL

Question: And the Qb10% 2.4 min [13]?
Answer: 56.9 mg/mL

Question: And the Qb10% 6 min [13]?
Answer: 71.1 mg/mL

Question: What about the Qb10% 2.4 min [14] of the same substance?
Answer: 40 mg/mL

Question: What about the Qb10% 6 min [14] of the same substance?
Answer: 57 mg/mL

Question: And the Qb10% 2.4 min [15]?
Answer: 49 mg/mL

Question: And the Qb10% 6 min [15]?
Answer: 59 mg/mL

Question: What about the Qb10%, 6 min, before incubation [16] of the same substance?
Answer: 73 mg/mL

Question: What about the capacity relative to ref. 100 cycles [17] of the same substance?
Answer: 1.34

Question: What about the capacity relative to ref. 200 cycles [17] of the same substance?
Answer: 2.06

Question: What about the capacity relative to ref. 300 cycles [17] of the same substance?
Answer: 3.56

Question: And the Qb10% 2.4 min [18]?
Answer: 33.4 mg/mL

Question: What about the Qb10% 6 min [18] of the same substance?
Answer: 49.8 mg/mL

Question: And the Qb10% 2.4 min [19]?
Answer: 48.7 mg/mL

Question: What about the Qb10% 6 min [19] of the same substance?
Answer: 55.8 mg/mL

Question: And the Qb10% 2.4 min [20]?
Answer: 29.2 mg/mL

Question: And the Qb10% 6 min [20]?
Answer: 48.7 mg/mL

Question: What about the Qb10% 2.4 min [21] of the same substance?
Answer: 40 mg/mL

Question: What about the Qb10% 2.4 min [22] of the same substance?
Answer: 24.8 mg/mL

Question: What about the Qb10% 6 min [22] of the same substance?
Answer: 55.6 mg/mL

Question: What about the Qb10% 2.4 min [23] of the same substance?
Answer: 44 mg/mL

Question: What about the Qb10% 6 min [23] of the same substance?
Answer: 65 mg/mL

Question: What about the Qb10% 2.4 min [24] of the same substance?
Answer: 31.8 mg/mL

Question: What about the Qb10% 6 min [24] of the same substance?
Answer: 58 mg/mL

Question: And the Qb10% 2.4 min [25]?
Answer: 34.9 mg/mL

Question: What about the Qb10% 6 min [25] of the same substance?
Answer: 64.7 mg/mL

Question: What about the Qb10%, 6 min, before incubation [26] of the same substance?
Answer: 78 mg/mL

Question: And the Qb10% 2.4 min [27]?
Answer: 42 mg/mL

Question: What about the Qb10% 6 min [27] of the same substance?
Answer: 55 mg/mL

Question: And the Qb10% 2.4 min [28]?
Answer: 49 mg/mL

Question: And the Qb10% 6 min [28]?
Answer: 56 mg/mL

Question: And the Qb10% 2.4 min [29]?
Answer: 39 mg/mL

Question: And the Qb10% 6 min [29]?
Answer: 46 mg/mL

Question: What about the Qb10% 2.4 min [30] of the same substance?
Answer: 45 mg/mL

Question: And the Qb10% 6 min [30]?
Answer: 51 mg/mL

Question: What about the remaining capacity 100 cycles [31] of the same substance?
Answer: 56%

Question: And the Qb10% 2.4 min [32]?
Answer: 44 mg/mL

Question: What about the Qb10% 6 min [32] of the same substance?
Answer: 52 mg/mL

Question: And the Qb10% 2.4 min [33]?
Answer: 48 mg/mL

Question: What about the Qb10% 6 min [33] of the same substance?
Answer: 73 mg/mL

Question: What about the Qb10% 2.4 min [34] of the same substance?
Answer: 45.1 mg/mL and 45 mg/mL

Question: What about the Qb10% 6 min [34] of the same substance?
Answer: 57.2 mg/mL and 57 mg/mL

Question: And the Qb10% 2.4 min [35]?
Answer: 38.5 mg/mL and 37.8 mg/mL and 35.1 mg/mL

Question: What about the Qb10% 6 min [35] of the same substance?
Answer: 56.8 mg/mL and 58.6 mg/mL and 57.2 mg/mL

Question: What about the Qb10% 6 min [36] of the same substance?
Answer: 63 mg/mL

Question: And the Qb10% 2.4 min [37]?
Answer: 35.6 mg/mL

Question: And the Qb10% 6 min [37]?
Answer: 46 mg/mL

Question: And the Qb10% 2.4 min [38]?
Answer: 41.9 mg/mL

Question: What about the Qb10% 6 min [38] of the same substance?
Answer: 54.7 mg/mL

Question: What about the Qb10% 2.4 min [39] of the same substance?
Answer: 32.2 mg/mL

Question: What about the Qb10% 6 min [39] of the same substance?
Answer: 57.8 mg/mL

Question: And the Qb10% 2.4 min [40]?
Answer: 42 mg/mL

Question: What about the Qb10% 6 min [40] of the same substance?
Answer: 46 mg/mL
